Results published in patent US20240115742A1, “FLUORINATED FIBERS FOR MULTIMODAL 1H AND 19F MRI, ULTRASOUND, FLUORESCENCE DETECTION AND CONFORMATIONAL AND TEMPERATURE DETECTION BY 19F MRS” (New York University, priority 2022, published 2024).
Where “and” joins values, the source holds several entries; their conditions need not be identical. Identical values can stand only once.

How the values were obtained:
Parallel plate rheology = type: physicochemical; conditions: 10 Hz, 5% strain
Description: Rheology. Mechanical integrity of the Q2 hydrogel was assessed using a stress-controlled rheometer (Discovery Hybrid Rheometer 2, TA Instruments) equipped with a parallel plate geometry. After complete gelation of a 2 mM sample at 4° C., the sample was loaded onto the 8 mm diameter lower and upper plates with a 0.2 mm geometry gap. Strain and frequency settings were informed from previous Q hydrogel studies where the storage modulus (G′) and loss modulus (G″) were measured over the frequency range 0.1-10 Hz with a 5% oscillation strain.
Rheology. Q hydrogel variants were assessed for relative mechanical integrity with a stress-controlled rheometer (Discovery Hybrid Rheometer 2, TA Instruments) equipped with a parallel plate geometry. In parallel with microrheology measurements, 100 μL of each variant was incubated at 4° C. Upon gelation as assessed by microrheology, hydrogels were loaded onto an 8 mm diameter lower and upper plate with a 0.2 mm geometry gap. Storage modulus (G′) and loss modulus (G″) were measured from 0.1-10 Hz with 5% oscillation strain.

[1] = Tube inversion concentration-temperature phase diagram; type: physicochemical; conditions: for solubility limit: 50 mM Tris, 500 mM NaCl, pH 8.0; for UCST: at solubility limit, extent of gelation η 0.5
Description: Tube Inversion Test. Immediately after concentration to 2 mM, the protein was incubated at 4° C. over the course of two weeks after aliquoting 150 μL into a 2 mL Eppendorf tube. The samples were visually assessed for gelation by inverting the tubes at 12-hour time intervals thereafter, with gelled samples not flowing upon inversion.
Gelation. To study the relative gelation of Q2 as compared to the previously reported coiled-coil hydrogel, Q, protein was successfully expressed (FIG. 24), purified (FIG. 25), and concentrated to 2 mM (1% w/v) in Tris buffer (50 mM Tris, 500 mM NaCl) at pH 8.0. Purity of the protein was measured to be >99% by SDS-PAGE (FIG. 26) and concentration was measured by BCA assay. Immediately following concentration, the gelation process of Q2 was studied using the microrheology assay described previously following incubation at 4° C. Separately, 150 μL samples were aliquoted for tube inversion tests performed after 2 weeks of incubation for visual assessment of gelation over time at 4° C. (FIG. 19a-d) and at concentrations from 1 mM to 3.5 mM with temperatures 5° C. to 25° C. using 0.5 mM and 5° C. step sizes, respectively, to create a matrix-based phase diagram (FIG. 19e). Temperature and concentration ranges were selected based on preliminary tube-inversion testing at high and low ends of the ranges.
Thermoresponsiveness and material strength. UCST behavior of protein hydrogels was assessed by testing […] samples via tube inversion in 2 mL microtubes after incubation for two weeks at various temperatures and concentrations. Temperature conditions were modulated in the range of 5-40° C. The concentration range was modified depending on if precipitation was visually noticeable in the microtube at an earlier concentration, indicating a solubility limit to our phase diagram, as has been done previously. […] As done with Q2, the UCST of the hydrogels was determined using a bivariate linear relationship for the extent of gelation where tubes that passed gelation by tube inversion were assigned a value of 1 (shown in black in FIG. 52a and FIG. 64a-d) and tubes that failed gelation by tube inversion (shown in red in FIG. 52a and FIG. 64a-d) were assigned a value of 0. The heatmap in FIG. 52a and FIG. 64a-d was used to denote the range of extent of gelation where the equation was employed to solve for the UCST using the solubility limit and solving for an extent of gelation, η, value of 0.5. The UCSTs (FIG. 52b) for the hydrogels studied here were 13.0° C., 35.9° C., 33.6° C., 17.5° C., and 22.9° C. for Q3-7, respectively, as compared to 17.0° C. for Q and 22.0° C. for Q2 found previously. Bivariate regression allowed for solving the coefficients for the dependence of temperature and concentration on gelation.
Tube Inversion. Binary sol-gel behavior was assessed using tube inversion. Immediately after concentration to 2 mM, 150 μL of Q hydrogel variants were incubated in 2 mL microtubes at 4° C. for two weeks. Gelation was visually observed by inverting the microtube and inspecting the sample for flow from the top of tube.

[2] = Fluorescence recovery after photobleaching (FRAP); conditions: one-phase association fit
Description: Protein fibrils are capable of blue autofluorescence as a result of protein self-assembly. Fluorescent recovery after photobleaching (FRAP) is measured by photobleaching using a 405 nm laser and measuring the spot intensity over time. This behavior was previously confirmed in the Q protein in a recent characterization. Using the correlation between autofluorescence and fibrilization, the relative autofluorescence of the coiled-coil protein hydrogels was measured. […] To assess the relative laser response, hydrogels were subjected to FRAP imaging using two 100% intensity bleaches at 405 nm excitation followed by imaging at 2 second frame intervals (FIG. 53c).
Confocal Imaging and Fluorescence Recovery After Photobleaching (FRAP). FRAP experiments were performed with a Stellaris 8 Falcon laser scanning confocal microscope on an inverted DMi8 CS stand equipped with 63X NA 1.4 lens. Images were taken with a laser at 405 nm excitation. A pre-bleach image was taken followed by two bleach images using 100% laser intensity for 1.5 s. Following, 41 images were taken post-bleach at 2 s intervals. To measure recovery, FIJI (version 2.3.0) was used to automate background and recovery imaging following photobleaching. Independent background intensities were fit to a one-phase decay equation in GraphPad Prism. Background loss, as a result of photobleaching, from fit values were added to spot intensity values before being fit to a one-phase association equation in GraphPad Prism.

[3] = TEM of hydrogel nanofibers; type: physicochemical; conditions: gel after incubation at 4 °C
Description: Transmission Electron Microscopy. Transmission electron microscopy (TEM) images were taken with a FEI Talos L120C transmission electron microscope. The supramolecular assembly of Q2 and Q were monitored over the course of 60 and 144 hours, respectively (in correspondence with tube inversion and microrheology). TEM images were taken of the gel at times consistent with when microrheological measurements for Q2 for consistent fibril sizing. Samples were diluted to 50 μM and 3 μL was spotted on Formvar/carbon-coated copper grids followed by 5 μL wash with water, and 3 μL staining with 1% v/v uranyl acetate solution each with incubation times of 1 min. Following imaging, fibrils were sized in ImageJ software (Version 1.52q).
Transmission Electron Microscopy. Transmission electron microscopy (TEM) images were taken with a FEI Talos L120C transmission electron microscope. Samples were diluted to 50 μM and 3 μL was spotted on Formvar/carbon-coated copper grids followed by […] with water, and 3 μL staining with 1% v/v uranyl acetate solution each with incubation times of 1 min. Between steps, filter paper was used to gently wick the grids dry. Following imaging, minimum diameter nanofibers within the physically crosslinked hydrogel were sized in ImageJ software (Version 1.52q).

In the case of “Q5: Q hydrogel variant from Rosetta Monte Carlo search, SEQ ID NO: 14 (MRGSHHHHHHGSIEGRVKEITFIKKTIEQIAEEMKEINKAIHDIRHALENISKK) [Protein Q5]”, the “loss modulus G″” value (Parallel plate rheology) is reported as 12±6 Pa and 11.8 ± 6.1 Pa, the “storage modulus G′” value (Parallel plate rheology) is reported as 229±52 Pa and 228.7 ± 52.2 Pa and the solubility limit [1] is reported as 3.5 mM. It also gave a UCST [1] of 33.6 °C, a Halftime [2] of 12.3 s and a K [2] of 0.1 s⁻¹. For the same substance, the Tau [2] was 17.7 s and the “hydrogel fibril diameter (TEM)” value [3] was 22.2±8.4 nm.

For “Q: rationally designed pentameric coiled-coil derived from C, SEQ ID NO: 23 (MRGSHHHHHHGSIEGRVKEITFLKNTAPQMLRELQETNAALQDVRELLRQQSKL) [reference compound]”, the solubility limit [1] was 3.5 mM, the UCST [1] was 17.0 °C and the Halftime [2] was 9.9 s. The K [2] was 0.1 s⁻¹, the Tau [2] was 14.3 s and the “hydrogel fibril diameter (TEM)” value [3] was 40.5±25.2 nm.

With “Q2: coiled-coil protein redesigned from Q for reduced lateral assembly, SEQ ID NO: 11 (MRGSHHHHHHGSIEGRVKELLFLKKTAEQMLEELKETNKALHDVRHLLENQSKL) [Protein Q2]” the “storage modulus G′” value (Parallel plate rheology) was 289.6±86.9 Pa, the solubility limit [1] was 3.5 mM and the UCST [1] was 22.0 °C. It also gave a Halftime [2] of 11.1 s, a K [2] of 0.1 s⁻¹ and a Tau [2] of 16.0 s. The “hydrogel fibril diameter (TEM)” value [3] was 28.9±8.6 nm.

In the case of “Q3: Q variant with V44I pore mutation, SEQ ID NO: 12 (MRGSHHHHHHGSIEGRVKEILFLKNTAYQMLLELKETNEALYDIRHLLQQQSKL) [Protein Q3]”, the “loss modulus G″” value (Parallel plate rheology) is reported as 12±2 Pa and 12.3 ± 1.7 Pa, the “storage modulus G′” value (Parallel plate rheology) is reported as 83±35 Pa and 82.5 ± 35.4 Pa and the UCST [1] is reported as 13.0 °C. For the same substance, the Halftime [2] was 34.8 s, the K [2] was 0.0 s⁻¹ and the Tau [2] was 50.1 s. For the same substance, the “hydrogel fibril diameter (TEM)” value [3] was 32.8±9.8 nm.
